Test: purified protein yield per well (BCA); higher = higher soluble expression
How it was run: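 The measured quantity is purified protein yield per well, determined with the Pierce Rapid Gold BCA kit. Anything below 25 ug (0.1 mg/mL) lies under the detection threshold. Enzymes were expressed in E. coli C41(DE3) in 2 mL autoinduction cultures with 100 µg/mL kanamycin at 37 °C for 2 h, then 18 °C for 40 h, and purified on an OT-2 robot using Ni-charged magnetic beads and SUMO protease release.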

Row | Sequence | purified protein yield per well
1 | MYYPTTTSVGTFGAVAIAPGYTARESSIAWLGPRLASQGFVVFTIDTITTQDQPSSRGDQLRAALSYVATESSVRTRVDGSRLAVMGHSMGGGGSLQAAKDDPSIRAVIPMTPYDLDKTWPEVVAPTLVIGAEDDTVAPVSRHAEPFYESLTQASEKAYLELRGASHFAPNVSNTTIASASIAWLKRHVDADTRYERFICPAPAVSLQISEYRSTC [TEP079] | < 25 µg
2 | NNPAPTPTPTPTPGTPSAYQRGPAPSVSFLQASRGDLSVRTSRVSSFTSGFGGGTIHYPTGTTGTMAAIVVIPGYVSAESSIEWWGPKLASYGFVVMTIDTNSGFDQPPSRARQINSALDYLVSQNSSSRSPVRGMIDTNRLGVVGWSMGGGGTLRVAEEGRIKAAIPLAPWDTTNFRDNYTPTLIFACQSDVIAPVNQHASPFYNQIPSSTDKAFVELSGGSHYCGNGGGVYNNVLGRLGVSWMKRHLDQDTRYDQFLCGPNHESDSRISEYRGNCSN [ESM126] | < 25 µg
3 | NPYERGPAPTTASLEASRGPFATSSFTVSRPSGYGAGTVYYPTNAGGTVGAIAIVPGFLARQSSINWWGPRLASHGFVVITIDTNSTFDQPTSRSRQQLAALDQVAALARTSSSPIYNRVDTTRMGVMGWSMGGGGTLISAQNRPSLKAAAPQAPWNNSTNFSSVTVPTLILACESDSTAPVNQHASPFYNSMSRNSKQYLEINNGSHSCANSGNSNQPLIGKRGVAWMKRFMDNDTRYTSFACANPNSTRVSEFRTANCS [ESM076] | < 25 µg
4 | NTNVPSQACNLTNANGCDSIAILNLTINQADTLYTNIITCDNYTWDGTTYTNSGIYNNVYTNSNGCDSILLNLITIPGPFSVSNIDESSGIRNGLDYDGATIYYPDNGNYLSSIVIVPGFMNTELTVQNWGPFLASYGIVTMTIGTNALTDSEFQRRDALIDAIISLKDENNRSLSPLFGRLNTSSISVGGFSKGGGGAQLVASLDSSIKAIVALYPFIDNPIVSDFDHNIPTFIISGQLDVIAPPAQHADIHYDLIPNSTKKLKYELSVGTHDALSGPYGGLNQVGERVLSFLGLFLENDSCYCPLLDITPSLSSRSKSAPLTKSLMILPAATDALRAGSKSTSAKLAEAVA [TEP057] | < 25 µg
5 | PWTSYSAGATVYYPRTATAPFSAIVFMQPYTGTQAMNYAWGPWFASHGIVYVNYDSTTTLDTVDSRATQQMNAINALKNENNRSASPLYRKLDTSRIGVMGWSMGGGASWINSANSSIKTAMSLAGHSLTAVSIYKSGRYTKCPTMIFSGLLDTTYLGGMGQSEGVYRNIPSGIAKIHYEVRSAGHMAWGSPTSASSNVAKIALAFQKTFLDGDTRWAAYLTQPSDASTWNTASLPSTGGTTPDYPWWYWWR [TEP072] | < 25 µg
6 | QAAANPYERGPAPSVSSIEAARGSYAVSQTSVSSLGVTGFGGGTVYYPTSTADGTFGAVVISPGFTATQSSISWLGPRLASQGFVVFTIDTNSTLDQPDSRGRQLLAALDYLTERSSVRTRIDATRLGVMGHSMGGGGTLEAAKSRPSLQAAIPLTGWNTDKSWPELRTPTLVIGADGDTVAPVATHSEPFYTSLPSSLDKAYLELNGATHFTPNSSNTTIAKYSISWLKRFIDDDTRYEQFLCPLPRPSVTIEEYRGNCPHS [TEP116] | < 25 µg
7 | QACDSLLLESITNPGPFIVNTIDESLGIRNGPGYNGGTIFYPDHIGNFSSIVLVPGFMNSEFTIQNWGAFFASHGIITMTIGTNALTDTHIQRRDALLDAIVSLKAENERLGSPLYGSIDTSSIAVGGFSKGGGGAMLVPAIDPNIKAIISLYPWLENPTSSDLNHSVPVIIISGELDLIAPPFIHADIHYNLLPNTTMKLKYEVALGSHDIISGPNAGNGEVGVRVISWLQNFLLDDSCYCPILTLIPNTSSSYTTNILCNNTSINISSFNTGSDKKLLKITDIFGRETKEILNKYLLFIYDDGTVEKNIVLE [TEP022] | < 25 µg
8 | QAIGPDPTAASLAADGPFAVSTQTASRATGFAGGTIYVPNTAGRYALVAFCPGFTNSQSAVAALGRRLATHGFVVVTMNTNSIFDFPASRATQLIAALNTVAAISTGPVVGKVDSARRMVAGYSMGGGGALIAARGNPSLRGAVALAPWSDSDKNFSTTTVPTAIVAGSADTTASPTDHATVFYNSMPTTTKKLLAIISGATHSFPTTSTPNQPASGYQIAWSKRFADQDVRYGPFLVTDSRLSSFASTGPF [ESM142] | < 25 µg
9 | QARDVTAGNPYQRGPDPTVAMIEARTGPFATASASVPAGYGFNGGMVYYPTDTSLGTWGALAIVPGYSALFANEEAWMGPWLASFGFVVIGVETTTRTDSADARGTELLSALNYLTTQSPVRDRVDPNRLSVLGHSAGGAGAMLAAQRQPTLKAAVGLAPGSPVGNLSLATDTVPTMVIGGQNDSVVTPSYLSGLYATMPASTQSAFAQIAGADHVYYTRPNNVETKLLIPWLKTFLDNDTRYVPFLCPAPPDPSSLSMYVPKCPYVPGGSGPGGGGNTGALHAVGAAKCLAAPSSGTPGTQLTIGTCDGQARQTWTRTATDQLTVTTAGATLCLDASGQGGSPGTKAIVWSCNGQANQHWNVNSNGTVTSAQSGLCLDVTGGSTAEGAPVELWTCNGGGNQQWHLG [TEP085] | < 25 µg
10 | QDCDSLKISSISNPGPYKVKKILEKDGLRDGPDYYGATLYYPEDATPPFASIVIVPGFWSYEPSIQAWGPFLASHGIVTLTIGTNILSDFPEQRALALLDAAETIKQEIIRESSPLYGSLDPTKIAVSGWSMGGGGAQMAAVLDTTLKAVMALAPWQNTQLTETAFNHPVPTLIFSGEKDPTAPASMHATVHYNYTPQTTSKLLFEIKNGNHSVANTPEGGNGDVGRIAIAWLKNLLVGQPCYCPLLLDPPVSASKYVTNLQCSSIASVSRPDGKDDFSP [TEP159] | < 25 µg
11 | QDNPYERGPDPTESLIEASRGPFSVSQTSVSSLVSGFGGGTIYYPTSTSEGTFGAVAISPGFTATESSIAWMGPRLASHGFVVITIDTNTIYDQPSSRGDQLLAALDYMTEDNLTVRGRIDSSRLAVAGHSMGGGGSLEAASSRPALQAAVPLAPWNTDKSWSELRTPTLIIGGESDSIAPVATHSIPFYNSIPASAEKAYLELDNASHFFPQTPNTTQAKYMLSWLKRFVDNDTRYEQFLCPAPDDRDISDYRDTCPHA [TEP150] | < 25 µg
12 | QDNSQGRYRPEGRQVGLAIGREFDERLYEVRTYEPEVGAEAFAGAMVFYPLTLSFDPPNGAVAFVPGFRAPASVYEWWGPALASLGYSVFILETNTPTDALAARADALIAAVDLIKAENQNPDAPVANKIDPEKIAIMGHSMGGGASLVAATQMGDSIKAVIPLALYCCEPGQSFSGDYGSLTLPTMIIASAEDEVAPPAEHAKLLYDSIGGSKTYVEFARGDHMFISNSGDQKATLGRFVLAFLKDILDGR [TEP019] | < 25 µg
13 | QENPFERGPDPTERSIEAPRGPFATATTTVARGGVQGFGGGTIYYPTDTSEGTFGAVAISPGFTESQSAISWYGQRLASQGFVVFTIDTNGIFDFPDQRGDQLLAALDYLTTHSTVADRIDADRLGVLGHSMGGGGSLSAVDERTELQAAIPLAPWHLNQNWSGVDVPTMIIGGETDFIAPVDTHAEPFYQSLPSSLDKAYLEMKGKGHFVTNSPNTVIAKFAISWLKRFIDNDTRYERFLCPAPSPDAEISEYRDTCPH [TEP078] | < 25 µg
14 | QIGPAPTSASLNATAGPLAVSTSTVTVATGFGGGTIYYPSTAGQYGVIAISPGFTATQSSVAWLGRRLATHGFVVITIDTNTTLDQPASRATQLIAALNYVVNSASSTVRSRVDPNRRAVAGHSMGGGGALIAAENNPSLKASLPLTPWNLSSSFTQVRVPTLIVGSDGDAVAPVAVHARPFYASLPGTTYKAYAELNLATHFTPNSTNTPIGRYGVTWMKRFVDADTRYSSFLCGADHQAYATALVFDRYSQNCPY [ESM116] | < 25 µg
15 | QIGPDPTSASLNATAGSFAVSTSNVTLARGFGGGTIYYPTTAGRYGVVAISPGFTATQSSIAWLGRRLATHGLVVITMNTNSTLDQPASRATQLMAALNYVVNSASSTVRARVDSTRLAVAGHSMGGGGALIAAEDNPTLKAALPLTPWNLSTSFTQVRVPTLIVGADGDTVASVAAHARPFYASLPASTFKAYAELNGATHFTPNSTNTPIGRYGVTWMKRFVDADTRYSPFLCGAAHTAYATALVFDRYNQNCPY [ESM068] | < 25 µg
16 | QIGPDPTSSSLNATSGPFAVSTSNVVLARGFGGGTIYYPTTTGRYGVVAISPGFTATESSVAWLGRRLATHGLVVITINTNSTLDQPASRATQLMAALNHVVNSASSTVRSRVDSTRLAVAGHSMGGGGALIAAENNPTLKAALPLTPWNLSSSFTQVQVPTLIVGADGDSVASVAVHARPFYASLPATTFKAYAELNGASHFTPNSTNTPIGRYGTAWMKRFVDADSRYSPFLCGAPHEAYATALVFDRYNQNCPY [DP027] | < 25 µg
